The values that follow come from publication PMC9987972, “Interaction of the periplasmic chaperone SurA with the inner membrane protein secretion (SEC) machinery” (Biochemical Journal, 2023).

For series [1], the target named is T1, SurA (E. coli), P0ABZ6.
T1 chain: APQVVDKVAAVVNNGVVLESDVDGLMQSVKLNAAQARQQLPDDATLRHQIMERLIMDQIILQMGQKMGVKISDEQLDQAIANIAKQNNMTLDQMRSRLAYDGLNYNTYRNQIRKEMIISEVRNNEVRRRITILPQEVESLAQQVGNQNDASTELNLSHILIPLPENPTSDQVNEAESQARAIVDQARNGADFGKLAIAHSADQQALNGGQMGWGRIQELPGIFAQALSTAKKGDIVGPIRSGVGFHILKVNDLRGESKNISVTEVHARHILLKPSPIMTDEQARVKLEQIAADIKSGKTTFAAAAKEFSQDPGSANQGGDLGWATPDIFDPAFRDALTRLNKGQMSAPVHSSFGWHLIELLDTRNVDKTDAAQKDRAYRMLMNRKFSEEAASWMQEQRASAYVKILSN
Put plainly: native gel or EMSA; NativePAGE Bis-Tris 3–12%; HTL 3.8 µM with SurA or SurA:OmpA at 1:3 molar ratio, or each alone, in TS130G (20 mM Tris-HCl pH ≈ 8, 130 mM NaCl, 10% glycerol) + 0.01% DDM-CL, 30 min at 30°C; bands excised and analysed by SDS–PAGE with silver staining. The settings on record: remark: other sources report otherwise.

Series [2] concerns the molecule itself. The series is described as above.

B1: SurA, P0ABZ6 21-428 (natural protein)
chain: APQVVDKVAAVVNNGVVLESDVDGLMQSVKLNAAQARQQLPDDATLRHQIMERLIMDQIILQMGQKMGVKISDEQLDQAIANIAKQNNMTLDQMRSRLAYDGLNYNTYRNQIRKEMIISEVRNNEVRRRITILPQEVESLAQQVGNQNDASTELNLSHILIPLPENPTSDQVNEAESQARAIVDQARNGADFGKLAIAHSADQQALNGGQMGWGRIQELPGIFAQALSTAKKGDIVGPIRSGVGFHILKVNDLRGESKNISVTEVHARHILLKPSPIMTDEQARVKLEQIAADIKSGKTTFAAAAKEFSQDPGSANQGGDLGWATPDIFDPAFRDALTRLNKGQMSAPVHSSFGWHLIELLDTRNVDKTDAAQKDRAYRMLMNRKFSEEAASWMQEQRASAYVKILSN
For B1, the stoichiometry N in series [1] amounted to 2.

B2: SurA–OmpA complex (complex)
chain 1: APQVVDKVAAVVNNGVVLESDVDGLMQSVKLNAAQARQQLPDDATLRHQIMERLIMDQIILQMGQKMGVKISDEQLDQAIANIAKQNNMTLDQMRSRLAYDGLNYNTYRNQIRKEMIISEVRNNEVRRRITILPQEVESLAQQVGNQNDASTELNLSHILIPLPENPTSDQVNEAESQARAIVDQARNGADFGKLAIAHSADQQALNGGQMGWGRIQELPGIFAQALSTAKKGDIVGPIRSGVGFHILKVNDLRGESKNISVTEVHARHILLKPSPIMTDEQARVKLEQIAADIKSGKTTFAAAAKEFSQDPGSANQGGDLGWATPDIFDPAFRDALTRLNKGQMSAPVHSSFGWHLIELLDTRNVDKTDAAQKDRAYRMLMNRKFSEEAASWMQEQRASAYVKILSN
chain 2: APKDNTWYTGAKLGWSQYHDTGFINNNGPTHENQLGAGAFGGYQVNPYVGFEMGYDWLGRMPYKGSVENGAYKAQGVQLTAKLGYPITDDLDIYTRLGGMVWRADTKSNVYGKNHDTGVSPVFAGGVEYAITPEIATRLEYQWTNNIGDAHTIGTRPDNGMLSLGVSYRFGQGEAAPVVAPAPAPAPEVQTKHFTLKSDVLFNFNKATLKPEGQAALDQLYSQLSNLDPKDGSVVVLGYTDRIGSDAYNQGLSERRAQSVVDYLISKGIPADKISARGMGESNPVTGNTCDNVKQRAALIDCLAPDRRVEIEVKGIKDVVTQPQA
notes: SurA, periplasmic chaperone, E. coli; as the chain of m2; OmpA, outer membrane protein, from pET11a-ompA; also called substrate-engaged SurA; occupied chaperone; source: E. coli BL21(DE3), made separately; OmpA pellet in 6 M urea mixed with SurA supernatant, urea dialysed away, purified (HisTrap, HiTrap Q; S200 SEC for the size exclusion experiments)
On to B2, for which the “stoichiometry N” value in series [2] is 2.
